Assay results from the DeepSol protein solubility set.

Assay: soluble on expression in E. coli; label from the status in PepcDB or PDB records

Row | Sequence | soluble on expression in E. coli
1 | MKNNAIGSNWKDVRAELFSKEEILESDMRVAIMSELIEARNEKGISQKKLEEMSGVSQPVIARMETGKTSPQLDTVLKVLASLGKTLAVVPLEHEQV | not soluble
2 | MKNNQNSNIHLLRSAKHAEPVMLDIKQLVKTYDNGHQAVKGVDLSIHQGEFIVLVGPSGCGKSSILRSIAGLESITSGEIHLAGRRVDNEKPANRDIAMVFQNYALYPHMSVYDNLAYGLKNRGVDKQTIAAKIAKVAKTLKIEEYLDRKPAKLSGGQRQRVAMGRAIVRDPQLFLFDEPLSNLDAALRAHMRLEIKKLQRELGVTSVYVTHDQVEAMTLADRIVVVKQGEIEQVGTPAEVYHQPASTFVASFIGSPAMNFLPASIKQGQLHIAGKHCYLPQFDAMSSENITLGIRPEHASLHPLTNAIELKLDIQVVEPLGPNQLVHGKIIGLESEQDFIAVTAEIPLDVHQTLPIWVALEQLHLFDQQGKRFVQSHRSCTQSSKVASTRQQ | not soluble
3 | MKNPGTHILPKNPECSKQKTLTKQLLLLELFEFQLDAQIQQNTFQLELTIQRRKEHLEIDSVMKIKNRNFANFGMFNSLHIIRFWNLFYNRISAADFPENSGFRMFATEILVKLENIGNVM | not soluble
4 | MKNPYVQITDQEQYKKSIRRIPPKDPNIFLIERPTAGEIIALWWTTSSRGKSTDKYIPKYFKRIYRVDMIKQRKLFIKANVISEENNTYVLTELGEMLVHKYFYIIEEHNNSSNDSFNTERRKLADKILYSLGGEI | not soluble
5 | MKPATYNTEAFDEWIRSRFVELNSQLEQLYYQQTDRANVQEVGTELKHTLESEGRELVKALLDEGNTDEGFDSAFDLLGNVGLYMAACRRHEITEPTRETTSPLLEASALAMHIGASIGVTPRFATAHLTTHNRAHNGIYKRFTDLPDEKLFVDYNTKGILAYKRASDALLKIQPLGISHPISHDLLRVTKQALQDVIESNQQLFNRLDTDRFFYCVRPYYKPYRVGSVVYRGANAGDFAGINVIDLTLGLCFANEASYSQMLVDKFLYMMPEDQQILRECMRRPNLMDDFLQAKGCIHQDWYQENLKLFIEVCELHGQTAIQHHNELVTKYIAEPSVSMEQQHLAKVTASGPPLHVLLASLERLRDRRAAVLRDDIRTRYYDLKKLKDSLRAAALEHHHHHH | soluble
6 | MKPKSGAVRRLEKNTMNFVLSDVADAEAEKAIRDPLVAYNLARFGESDKRDLNITIRNDDNSVTGGLVGHTARGWLYVQLLFVPEAMRGQGIAPKLLAMAEEEARKRGCMGAYIDTMNPDALRTYERYGFTKIGSLGPLSSGQSITWLEKRF | soluble
7 | MKPNIHPEYRTVVFHDTSVDEYFKIGSTIKTDREIELDGVTYPYVTIDVSSKSHPFYTGKLRTVASEGNVARFTQRFGRFVSTKKGA | soluble
8 | MKQGTMNILFFVLKTKLLKNGEAPVLMRITINGDYDDVRIQRSVPLNLWNAAKGCSKGRDRASVALNAYIAELHARALEKHKELVLEQALITPKLILKRVFGKDTEMRTLLGTMREGIKEMETLAGIDYSPVTINRYKNVVKKLQLLIPSYYGKEDVTFHELTPEFIRAFDIYLKTEAGLCRNTIVRYMKCFKKFTNMALAKEWMRKNPFYGYKMEQDETDPVFLTYDELQTVMKKKFTIPRLELVRDVFVFACFTGLAFSDVASLNKENLVQDNLGDWWIRKGRVKLEHRRKASSISNIPLLPVPLAILEKYKEHPTCIKKGCCLPVMCNQKMNSYLKEIADFCGIKKNLTTHVARHTFGTTVTLANNVPLQDVSVMLGHASTRMTQHYARVMNSSLKEAMNTVKERLAQ | not soluble
9 | MKQLTILGSTGSIGCSTLDVVRHNPDSFRVIALVAGKNVARMAEQCLEFSPRYAVMDDTSSAEQLKIMLQQHGSRTEVLSGQQAACEMAALDEVGHVMAAIVGAAGLLPTLAAIRAGKTILLANKESLVTCGRLFMDEVKRSNARLLPVDSEHNAIFQSLPQSIQHNLGYADLEQNGVTSILLTGSGGPFRETPMCDLAAMTPDQACRHPNWSMGRKISVDSATMMNKGLEYIEARWLFNASARQMEVLIHPQSVIHSMVRYQDGSVLAQLGEPDMRTPIAHTMAWPNRVTSGAQPLDFCKLSALTFSAPDYQRYPCLKLAMEAFEQGQAATTALNAANEITVAAFLAQQIRFTDIAGLNLAVLERMDLQEPASVEDVLQVDAIAREVARKQVIRLSR | not soluble
10 | MKQPEEELQETLTELDDRAVVDYLRHHPEFFIRNAHAVEAMRVPHPVRGTVSLVEWHMARARNHINVLEENMTLLMEQAHANESLFYRLLHLQSRLVAADSLDEMLVRFHRWARDLGLAGATLRLFPDRWRLGAPSRYTHLALNRQAFEPLRIQRLGQSQHYLGPLNGPELLVVLPEAKAVGSVAMSMMGSDGGLGVILFSSRDPHHYQPGQGTQLLQEIALMLPELLERWIKRVLEHHHHHH | not soluble
11 | MKQSKEEFIKSEGADFPGKTYVDCVLQHVFDFQRNYLLKDMFQVHKAHIVMLTEENLMKKEEAKFILHALKKVEEIPEEQLLYTEQHEDLFFLVEHLISQEAKSDFVSNMHIGRSRNDMGVTMYRMSLRRYVLRLMEHHLLLQESILQLAADHKETIMPAYTHTQPAQPTTFGHYTLAIYDTMQRDLERMKKTYKLLNQSPMGAAALSTTSFPIKRERVADLLGFTNVIENSYDAVAGADYLLEVSSLLMIMMTNTSRWIHDFLLLATKEYDGIAVARPYVQISSIMPQKRNPVSIEHARAITSSAPGEAFTVFQMIHNTPFGEIVDTEDDLQPYLYKGIEKAIRVFCILNAVIRTMKVEEDTLKRRSYKHAITITDFADVLTKNYGIPFRHAHHAASVIANMSLEQKKELHELCFKDVNIYLQEKFKIQLLEKEWEEIISPEAFIQKRNVYGGPSKKEMERMINNRKELFRKEEEVFEEEKQRILQAENDLNMLASNIIES | not soluble
12 | MKRIAFVGSVGAGKTTLFNALQGNYTLARKTLAVEFNDKGDIDTPGEYFSHPRWYHALITTLQDVDMLIYVHGANDPESRLPAGLLDIGVSKRQIAVISKTDMPDADVAATRKLLLETGFEEPIFELNSHDPQSVQQLVDYLASLTKQEEAGEKTHHSELEHHHHHH | soluble
13 | MKRIGYARTTIIEDDLKNQLTTLQSFGCDDIFQETFDPQAEISVLDEVEKLLSAGDTLIVCKLHHLGKTTRQLTDFMKMLKEKQVDFVSISEGIDTHLPTGEAYFQLMESLSAMECALIKERTLVGLHKARENGKVGGRPKIDGRTVRKIRALYYENKETIQFISNKCGVSVGTCYKYINLPETDVERLYS | not soluble
14 | MKRIRLWGLMAGLLLLLVGCGRAETTGVTKPVTTQGHRYIPTLFFHGWGSSYHAETHMADAIVKAGKTQTIVRAMVAKNGTVTLKGHFRSGDYRPIVEVNFANNRSSDYPTVGRWAKNVVVALQRTYGITSFNMVGHSMGNMAITYYLLANAQNKRLPQLRQQVAIAGHFNGILGMDDSPNQMTLNAAGRPNKLRPAYRQLLGLRRVYPRQQVRVLNIYGDKGDGTHSDGSVSNASSRSLRYLVAARARSYREVKLTGKHAQHSQLHENAQVDRLLIDFLWPTH | not soluble
15 | MKRLIVGISGASGAIYGVRLLQVLRDVTDIETHLVMSQAARQTLSLETDFSLREVQALADVTHDARDIAASISSGSFQTLGMVILPCSIKTLSGIVHSYTDGLLTRAADVVLKERRPLVLCVRETPLHLGHLRLMTQAAEIGAVIMPPVPAFYHRPQSLDDVINQTVNRVLDQFAITLPEDLFARWQGA | not soluble
16 | MKRLLLIIICTLGILSCGVPKEVTVPDKHLNYKDNIVLYNEKPYTGKVKLKKIAEKEQFEEGYISVKDGKLEGITDFKNDAAKTHFKFDVKSGKFNGEYILKHPLIGDFVMNFENGELKELKGKFPNDINQDLIFDKDGNVNGLIEQGGKQLDFQGGVAVKDTLKVKMFLDTETKQKLVTEVYEGDKLMAREENILLFTVKDFTEELLPVTGLQ | not soluble
17 | MKRLLVFLPLLLLACAPKPEAEAPQTTAPLRVQVRTLKAEPGLLTREARASANVVAEKESLVAAGASGRVVRTLPAGTRVRAGEGVVFLDPAPFQEALAQAKLALRQAEENLARAEAQTEGNRKALEAQLAAAEAQLAAAKRRYEEGKALLALGALAPLELKGLEAQYLQAQSAYENAKEALARLEREDDLRLLRLQVEAARLQVQQAERNLKESVVRAPFAGEVVEVYVKEGEFTGAGSRAFRLATTDRLLVKVYLPPERAAALTEDTAFRVRQNGKEVEARLQAKSDLPGQNRLVEVTLRPTGPLLPGAAEVRYPEVLAEGLLLPAGAVRTEDGEAFVYVVEEGRARKRPVRLLAQEGGRAAVAGLEAGEAVVYPVPEGLEDGDLVEVVP | soluble
